Reference: US20230265151A1, “GIP/GLP1 CO-AGONIST COMPOUNDS” (priority 2020, published 2023)
*1 amine or outer side, *2 acyl side, *3 side chain or, on linkers, in order; H or OH if unused. Where no end group is shown, it is not given here. Side-chain parts run from the residue outwards. [ ]: non-standard residue; d: D form. The star is where a group is joined. αMePhe(2-F) = C[C@](N)(Cc1ccccc1F)C(=O)O; γGlu = O=C(O)[C@H](CCC(=O)[*:2])N[*:1]; C14 diacid = O=C(O)CCCCCCCCCCCCC(=O)*; εLys = N[C@@H](CCCCN[*:1])C(=O)[*:2]; αMeY = C[C@](N)(Cc1ccc(O)cc1)C(=O)O; αMeL = CC(C)C[C@](C)(N)C(=O)O; Orn = NCCC[C@H](N)C(=O)O; AEEA = NCCOCCOCC(=O)O; Aib = CC(C)(N)C(=O)O

T1: human GIP receptor (human, UniProt P48546 22-466)
T1 sequence (looked up): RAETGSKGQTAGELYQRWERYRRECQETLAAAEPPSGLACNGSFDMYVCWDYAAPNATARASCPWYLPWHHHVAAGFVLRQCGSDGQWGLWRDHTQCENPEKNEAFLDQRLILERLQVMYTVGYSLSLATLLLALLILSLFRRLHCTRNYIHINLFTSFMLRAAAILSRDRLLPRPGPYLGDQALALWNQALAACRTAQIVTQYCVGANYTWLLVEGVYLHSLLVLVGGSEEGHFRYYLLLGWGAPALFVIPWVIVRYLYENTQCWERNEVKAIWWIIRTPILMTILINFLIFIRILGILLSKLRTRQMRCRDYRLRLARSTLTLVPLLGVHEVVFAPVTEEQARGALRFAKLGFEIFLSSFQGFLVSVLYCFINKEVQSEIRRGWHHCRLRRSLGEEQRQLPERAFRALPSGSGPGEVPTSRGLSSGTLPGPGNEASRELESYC

T2: human glucose-dependent insulinotropic polypeptide (GIP) receptor (human, UniProt P48546 22-466)
T2 sequence (looked up): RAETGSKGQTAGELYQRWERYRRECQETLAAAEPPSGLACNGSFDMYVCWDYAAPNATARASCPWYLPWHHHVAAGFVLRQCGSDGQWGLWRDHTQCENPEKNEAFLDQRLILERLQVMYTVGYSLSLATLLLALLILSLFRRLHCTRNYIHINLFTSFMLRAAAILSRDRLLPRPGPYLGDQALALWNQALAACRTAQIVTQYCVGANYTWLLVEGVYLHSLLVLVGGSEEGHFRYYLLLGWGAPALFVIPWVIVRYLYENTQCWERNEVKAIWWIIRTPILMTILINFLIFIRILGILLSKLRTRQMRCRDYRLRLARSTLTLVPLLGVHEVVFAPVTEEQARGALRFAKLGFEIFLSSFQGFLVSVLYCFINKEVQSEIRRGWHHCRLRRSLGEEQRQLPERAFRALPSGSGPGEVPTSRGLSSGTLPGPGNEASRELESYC


Experiments:
Experiment in all cases: cell-based or functional assay
[1] = target: T1, human GIP receptor
[2] = target: human GLP-1 receptor (human, UniProt P43220 24-463)
[3] = target: T2, human glucose-dependent insulinotropic …
[4] = target: human glucagon-like peptide-1 (GLP-1) receptor (human, UniProt P43220 24-463)
[5] = target: human glucagon receptor (human, UniProt P47871 26-477)

Binder	cAMP EC50 (1.0% HSA) [1] [nM]	cAMP EC50 (1.0% HSA) [2] [nM]	cAMP EC50 [3] [nM]	cAMP Emax [3] [%]	cAMP EC50 [4] [nM]	cAMP Emax [4] [%]	cAMP EC50 [5] [nM]
Y[Aib]EGT[αMePhe(2-F)]TSDV[Aib]I[αMeL]LD[Orn]K([AEEA-AEEA-γGlu-C14 diacid])AQ[Aib]EFI[dE][αMeY]LIEGGK([AEEA-AEEA-γGlu-C14 diacid])SSGAPPPS-NH2 (N-terminus assumed; SMILES CC[C@H](C)[C@H](NC(=O)[C@H](CC(C)C)NC(=O)[C@](C)(Cc1ccc(O)cc1)NC(=O)[C@@H](CCC(=O)O)NC(=O)[C@@H](NC(=O)[C@H](Cc1ccccc1)NC(=O)[C@H](CCC(=O)O)NC(=O)C(C)(C)NC(=O)[C@H](CCC(N)=O)NC(=O)[C@H](C)NC(=O)[C@H](CCCCNC(=O)COCCOCCNC(=O)COCCOCCNC(=O)CC[C@H](NC(=O)CCCCCCCCCCCCC(=O)O)C(=O)O)NC(=O)[C@H](CCCN)NC(=O)[C@H](CC(=O)O)NC(=O)[C@H](CC(C)C)NC(=O)[C@](C)(CC(C)C)NC(=O)[C@@H](NC(=O)C(C)(C)NC(=O)[C@@H](NC(=O)[C@H](CC(=O)O)NC(=O)[C@H](CO)NC(=O)[C@@H](NC(=O)[C@](C)(Cc1ccccc1F)NC(=O)[C@@H](NC(=O)CNC(=O)[C@H](CCC(=O)O)NC(=O)C(C)(C)NC(=O)[C@@H](N)Cc1ccc(O)cc1)[C@@H](C)O)[C@@H](C)O)C(C)C)[C@@H](C)CC)[C@@H](C)CC)C(=O)N[C@@H](CCC(=O)O)C(=O)NCC(=O)NCC(=O)N[C@@H](CCCCNC(=O)COCCOCCNC(=O)COCCOCCNC(=O)CC[C@H](NC(=O)CCCCCCCCCCCCC(=O)O)C(=O)O)C(=O)N[C@@H](CO)C(=O)N[C@@H](CO)C(=O)NCC(=O)N[C@@H](C)C(=O)N1CCC[C@H]1C(=O)N1CCC[C@H]1C(=O)N1CCC[C@H]1C(=O)N[C@@H](CO)C(N)=O)	7.05	20.4	–	–	–	–	–
YXEGTXTSDXSIXLDXKAQXEFIEXLIEGGKSSGAPPPS (Aib2, αMeF(2F)6, 4Pal10, αMeL13, Orn16, K17(Z), Aib20, αMeF25, K31(Z), C-terminal NH2; Z = AEEA2-(γ-Glu)-CO-(CH2)12-CO2H) [Example 159]	–	–	0.0198	95.3	0.558	89.4	> 9950
YXEGTXTSDXSIXLDXKAQXEFIKXLIEGGPSSGAPPPS (Aib2, αMeF(2F)6, 4Pal10, αMeL13, Orn16, K17(Z), Aib20, K24(Z), αMeY25, C-terminal NH2; Z = AEEA2-(εK)-CO-(CH2)12-CO2H) [Example 160]	–	–	0.0197	–	0.228	–	> 9950
YXEGTXTSDXSIXLDXKAQXEFIKXLIEGGPSSGAPPPS (Aib2, aMeF(2F)6, 4Pal10, aMeL13, Orn16, K17(Z), Aib20, K24(Z), αMeY25, C-terminal NH2; Z = eK-gE-C14_OH (so in the source)) [Example 161]	–	–	0.0207	–	0.203	–	> 9950
YXEGTXTSDXSIXLDXKAQXEFIKXLIEGGPSSGAPPPS (Aib2, αMeF(2F)6, 4Pal10, αMeL13, Orn16, K17(Z), Aib20, K24(Z), αMeY25, C-terminal NH2; Z = (εK)-(εK)-(γ-Glu)-CO-(CH2)12-CO2H) [Example 162]	–	–	0.022	89.7	0.327	–	> 9950
Y[Aib]EGT[αMePhe(2-F)]TSDV[Aib]I[αMeL]LD[Orn]K([AEEA-AEEA-εLys-C14 diacid])AQ[Aib]EFIK([AEEA-AEEA-εLys-C14 diacid])[αMeY]LIEGGPSSGAPPPS-NH2 [Example 166]	–	–	0.0774	97	0.192	90.3	> 9950
Y[Aib]EGT[αMePhe(2-F)]TSDV[Aib]I[αMeL]LD[Orn]K([εLys-γGlu-C14 diacid])AQ[Aib]EFIK([εLys-γGlu-C14 diacid])[αMeY]LIEGGPSSGAPPPS-NH2 [Example 167]	–	–	0.0534	99.5	0.217	91.4	> 9950
Y[Aib]EGT[αMePhe(2-F)]TSDV[Aib]I[αMeL]LD[Orn]K([εLys-εLys-γGlu-C14 diacid])AQ[Aib]EFIK([εLys-εLys-γGlu-C14 diacid])[αMeY]LIEGGPSSGAPPPS-NH2 [Example 168]	–	–	0.0482	93	0.312	93.3	> 9950
YXEGTXTSDXSIXLDXKAQXEFIXXLIEGGKSSGAPPPS (Aib2, αMeF(2F)6, 4Pal10, αMeL13, Orn16, K17(Z), aMeF20, D-Glu24, αMeY25, K31(Z), C-terminal NH2; Z = AEEA2-(γ-Glu)-CO-(CH2)12-CO2H) [Example 169]	–	–	0.0381	–	1.23	–	> 9950
YXEGTXTSDXSIXLDXKAQXEFIXXLIEGGKSSGAPPPS (Aib2, αMeF(2F)6, 4Pal10, αMeL13, Orn16, K17(Z), Ac5c20, D-Glu24, αMeY25, K31(Z), C-terminal NH2; Z = AEEA2-(γ-Glu)-CO-(CH2)12-CO2H) [Example 170]	–	–	0.0244	–	1.03	–	> 9950
YXEGTXTSDXSIXLDXKAQXEFIXXLIEGGKSSGAPPPS (Aib2, αMeF(2F)6, 4Pal10, αMeL13, Orn16, K17(Z), Ac6c20, D-Glu24, αMeY25, K31(Z), C-terminal NH2; Z = AEEA2-(γ-Glu)-CO-(CH2)12-CO2H) [Example 171]	–	–	0.0389	–	1.7	–	> 9950
YXEGTXTSDXSIXLDXKAQXEFIXXLIEGGKSSGAPPPS (Aib2, αMeF6, 4Pal10, αMeL13, Orn16, K17(Z), Aib20, D-Glu24, αMeY25, K31(Z), C-terminal NH2; Z = AEEA2-(γ-Glu)-CO-(CH2)10-CH3) [Example 172]	–	–	0.0149	–	0.141	–	> 9950
YXEGTXTSDXSIXLDXKAQXEXIXXLIEGGKSSGAPPPS (Aib2, αMeF6, 4Pal10, αMeL13, Orn16, K17(Z), Aib20, αMeF22, D-Glu24, αMeY25, K31(Z), C-terminal NH2; Z = AEEA2-(γ-Glu)-CO-(CH2)10-CH3) [Example 173]	–	–	0.0155	87.8	0.343	89.9	> 9950
